Patent US20060063228A1 (Pfizer, published 2006)
Substitutions are numbered along the chain they refer to. Names and notes keep the numbering of the source.

Assays:
FLAG-human IL-13 [1] = biological target: T1, FLAG-human IL-13 (human, UniProt P35225 34-146); assay: competition ELISA; IL-13-FLAG immobilized with anti-FLAG antibody, detected with biotinylated mAb13.2; unlabeled antibody varied
T1 construct: Captured on ELISA plates by anti-FLAG M2 antibody; order of tag and IL-13 is not certain; also called IL-13-FLAG; human IL-13-FLAG; not shown: FLAG tag
T1 sequence (P35225 other isoform, or with tags, fused parts or gaps limits assumed): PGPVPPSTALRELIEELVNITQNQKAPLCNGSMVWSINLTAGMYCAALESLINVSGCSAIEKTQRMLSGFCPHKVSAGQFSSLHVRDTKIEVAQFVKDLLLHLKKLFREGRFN

recombinant human IL-13 [2] = biological target: T2, recombinant human IL-13 (human, UniProt P35225 34-146); assay: competition ELISA; competitor mAb13.2
T2 construct: also called biotinylated IL-13; rec human IL-13
T2 sequence (P35225 other isoform, or with tags, fused parts or gaps): as the sequence (P35225 other isoform, or with tags, fused parts or gaps limits assumed) above

recombinant human IL-13 [3] = biological target: T2, recombinant human IL-13; assay: Biacore; h13.2v2 immobilized on the chip, dose range of human IL-13 passed over
[4] = biological target: T3, IL-13 captured by IL-13Rα2 on the surface of A375 human melanoma cells (human, UniProt Q14627 27-380); assay: flow cytometry; A375 cells pre-incubated with 3 ng/ml hu IL13, stained with biotinylated h13.2v2
T3 construct: whole, on cells; Recombinant human IL-13 (3 ng/ml, or 10 ng/ml for ADCC) contacted to A375 cells; also called IL-13-loaded A375 cells; cells expressing IL-13Rα2
T3 sequence (chain, as listed by the source, chain 1 of 2): as the sequence (P35225 other isoform, or with tags, fused parts or gaps limits assumed) above
T3 sequence (Q14627 27-380, chain 2 of 2): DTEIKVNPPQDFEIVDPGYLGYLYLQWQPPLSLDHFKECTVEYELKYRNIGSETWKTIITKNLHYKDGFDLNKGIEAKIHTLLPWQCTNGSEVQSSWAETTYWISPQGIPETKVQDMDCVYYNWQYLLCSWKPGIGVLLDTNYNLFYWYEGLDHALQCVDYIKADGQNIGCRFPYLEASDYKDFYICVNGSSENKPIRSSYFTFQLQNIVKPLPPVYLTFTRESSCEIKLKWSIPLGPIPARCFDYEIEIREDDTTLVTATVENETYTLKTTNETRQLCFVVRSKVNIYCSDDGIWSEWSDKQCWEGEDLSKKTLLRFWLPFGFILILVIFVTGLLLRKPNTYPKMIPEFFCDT
Description: The cell signaling form of the IL-13 receptor, which includes the IL-13Rα1 and IL-4Rα polypeptides, is found on the surface of cell types that respond to the cytokine. IL-13Rα2 is not typically expressed on the surface of IL-13-responsive cells, but has been reported on tumors of the brain, head, and neck (Kawakami et al. (2003) Clin. Cancer Res. 9:6381-8; Mintz et al. (2002) Neoplasia 4:388-99; Liu et al. (2000) Cancer Immunol. Immunother. 49:319-24). IL-13Rα2 expression may also be induced on IFNγ-treated primary human monocytes (Daines et al. (2002) J. Biol. Chem. 277:10387-93), or TNFα- or IL-13-treated primary human fibroblasts (Yoshikawa et al. (2003) Biochem. Biophys. Res. Commun. 312:1248-55). This receptor is not competent to mediate signaling responses to IL-13 (Kawakami et al. (2001) Blood 97:2673-9), but instead appears to act as a decoy receptor, competing for productive IL-13 interactions with IL-13Rα1 (Feng et al. (1998) Lab. Invest. 78:591-602). IL-13Rα2 has a high affinity for IL-13 (Andrews et al. (2002) J. Biol. Chem. 277:46073-8), and appears to interact primarily with the C-terminal region of the cytokine (Madhankumar et al. (2002) J. Biol. Chem. 277:43194-205), which is not predicted to include the h13.2v2 binding site. Therefore, it was examined whether h13.2v2 could interact with IL-13 captured by IL-13Rα2 on the cell surface. […]

recombinant human IL-13 [5] = biological target: T2, recombinant human IL-13; assay: Biacore; mAb13.2 immobilized on the chip, dose range of human IL-13 passed over
Procedure: (§1) Several measures were taken to confirm that the murine monoclonal antibody isolated in Example 1.1, i.e., mAb13.2, binds with high affinity and specificity to human IL-13. First, BIACORE™ analyses of three monoclonal antibodies to human IL-13 (mAb13.2, mAb13.4, and mAb13.9) were performed using a 69 RU streptavidin chip to which biotinylated IL-13 had been immobilized. […] Upon buffer exchange, dissociation was slow (FIG. 1). Second, BIACORE™ analysis of mAb13.2 was performed using a Biacore chip to which mAb13.2 had been immobilized. Different concentrations of IL-13 were passed over the chip. Again, rapid binding and slow dissociation was shown (FIG. 2). Third, analysis by ELISA determined that mAb13.2 bound to all forms of human IL-13 tested, including native IL-13 derived from cord blood T cells (FIG. 3). Plates were coated with anti-FLAG™ M2 antibody. The binding of FLAG™-human IL-13 was detected with biotinylated mAb13.2 and streptavidin-peroxidase. […] There was no detectable binding of mAb13.2 to recombinant murine IL-13 (FIG. 3). To confirm the results found by ELISA, the monoclonal antibody, mAb13.2, was coated onto a Biacore chip, and solutions containing recombinant human IL-13 or a polymorphic form of IL-13 (ARG variant), which is expressed at high frequency in patients suffering from asthma (Heinzmann et al. (2000) Hum. Mol. Genet. 9:594), were passed over the chip.

recombinant human IL-13 [6] = biological target: T2, recombinant human IL-13; assay: cell-based or functional assay
recombinant human IL-13 [7] = biological target: T2, recombinant human IL-13; assay: Biacore; biotinylated IL-13 immobilized on a 69 RU streptavidin (SA) chip, antibody passed over the chip
Procedure: as §1

recombinant murine IL-13 = biological target: T4, recombinant murine IL-13 (murine, UniProt P20109 19-131, limits assumed); assay: competition ELISA; FLAG-human IL-13 captured on anti-FLAG M2 plates and detected with biotinylated mAb13.2 and streptavidin-peroxidase; soluble IL-13 added as competitor of FLAG-human IL-13
T4 sequence (looked up): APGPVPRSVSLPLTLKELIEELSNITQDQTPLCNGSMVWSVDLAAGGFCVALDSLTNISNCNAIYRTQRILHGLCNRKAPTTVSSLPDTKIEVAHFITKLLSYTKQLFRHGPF
Procedure: as §1

FLAG-human IL-13 [8] = biological target: T1, FLAG-human IL-13; assay: competition ELISA; human IL-13-FLAG immobilized with anti-FLAG antibody, detected with biotinylated mAb13.2; unlabeled antibody varied
Procedure: The chimeric antibody, ch13.2, was tested for IL-13 binding. […] Chimeric antibody, ch13.2, was able to competitively bind to IL-13 similarly to mAb13.2 (FIG. 14A). In another test, human peripheral blood monocytes were treated overnight with IL-13 to induce CD23 expression in the presence of various concentrations of mouse mAb13.2 or ch13.2.

B1: partially humanized mAb13.2 (h13.2v1) (antibody, human IgG1, kappa, V domains shown)
VH: EVKLVESGGGLVQPGGSLRLSCAASGFTFISYAMSWVRQAPGKGLEWVASISSGGNTYYPDSVKGRFTISRDNAKNSLYLQMNSLRAEDTAVYYCARLDGYYFGFAYWGQGTLVTVSS
VL: DIQLTQSPSSLSASVGDRVTITCKASESVDNYGKSLMHWYQQKPGKAPKLLIYRASNLESGVPSRFSGSGSRTDFTLTISSLQPEDFATYYCQQSNEDPWTFGGGTKVEIKR
notes: Human IgG1 mutated (L234A/G237A), human kappa; also called hu13.2 V1
**Q.** Does B1 bind (FLAG-human IL-13 [1])?
**A.** binds

**Q.** Does B1 bind (recombinant human IL-13 [2])?
**A.** binds

B2: fully humanized mAb13.2 (h13.2v3) (antibody, human IgG1, kappa, V domains shown)
VH: B1 VH with K3Q, Q13K, A49S, L113T
VL: DIVLTQSPASLAVSPGQRATITCKASESVDNYGKSLMHWYQQKPGQPPKLLIYRASNLESGVPARFSGSGSGTDFTLTINPVEANDTANYYCQQSNEDPWTFGGGTKVEIKR
**Q.** Does B2 bind (recombinant human IL-13 [2])?
**A.** binds

B3: fully humanized mAb13.2 (h13.2v2) (antibody, human IgG1, kappa, V domains shown)
VH: B1 VH with K3Q
VL: B1 VL with L4M, R72G
notes: Human IgG1 mutated (L234A/G237A), human kappa; also called hu13.2 V2; biotinylated h13.2v2
**Q.** What does the source list for B3?
**A.** Ka (recombinant human IL-13 [3]): 9.3e+09 M⁻¹; Kd (recombinant human IL-13 [3]): 0.11 nM; binding result [4]: binds

B4: murine monoclonal antibody mAb13.2 (antibody, V domains shown)
VH: EVKLVESGGGLVKPGGSLKLSCAASGFTFISYAMSWVRQTPEKRLEWVASISSGGNTYYPDSVKGRFTISRDNARNILYLQMSSLRSEDTAMYYCARLDGYYFGFAYWGQGTTVTVSS
VL: DIVLTQSPASLAVSLGQRATISCKASESVDNYGKSLMHWYQQKPGQSPKLLIYRASNLESGIPARFSGSGSRTDFTLTINPVEADDVATYYCQQSNEDPWTFGGGTKLEIK
notes: also called mouse mAb13.2; biotinylated mAb13.2
**Q.** How did the Ka (recombinant human IL-13 [5]) turn out when B4 was run?
**A.** 2.1e+09 M⁻¹

**Q.** And the Kd (recombinant human IL-13 [5])?
**A.** 0.47 nM

**Q.** What about the “IC50 (read off the curve), TF1 proliferation” value (recombinant human IL-13 [6]) of the same binder?
**A.** ~0.3 nM

**Q.** What about the Ka (recombinant human IL-13 [7]) of the same binder?
**A.** 4e+10 M⁻¹

**Q.** What about the Kd (recombinant human IL-13 [7]) of the same binder?
**A.** 0.025 nM

**Q.** What about the koff (recombinant human IL-13 [7]) of the same binder?
**A.** 2.7e-06 s⁻¹

**Q.** And the kon (recombinant human IL-13 [7])?
**A.** 110000 M⁻¹ s⁻¹

**Q.** Does B4 bind (recombinant murine IL-13)?
**A.** no binding (tested: about 3000 ng/ml)

**Q.** What about the “IC50 (read off the curve)” value (FLAG-human IL-13 [8]) of the same binder?
**A.** ~1 nM

B5: chimeric mAb13.2 antibody (ch13.2) (antibody, human IgG1, kappa, V domains shown)
VH: B4 VH
VL: B2 VL with P15L, T22S, P47S, V62I, G72R, N85D, T87V, N89T, V108L
**Q.** How did the “IC50 (read off the curve)” value (FLAG-human IL-13 [8]) turn out when B5 was run?
**A.** ~1 nM
